Results from the domain aggregation screens of Martell et al. (2025).

Test: soluble fraction after stress (log2 fold change); higher = more stays soluble; pooled small domains, quantitative proteomics
Details: stress: 75 degC
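Note: 20 min heating vs room temperature control held 20 min.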

Sequence: HMNDYIGVDRAKEIALNHARMNESDVQFAKAKLENDDGVVEYEIEFYFGRTEYDYTIDAVSGNIIEYDVEY
- soluble fraction (log2): -1.86

Sequence: HMQELNDQQRLAILNEWNNRATNPPSLLELVRVAFPDAEGADGRSWHGKKVKEFLSTRQIKARAS
- soluble fraction (log2): 0.0119

Sequence: HMSRAHTELEEKLLTMLEENDMTLPMRVISNIASRIEGIIIPEEKILEVLKKSYDRYREHQMD
- soluble fraction (log2): -0.267

Sequence: HMKSTELSIIEALRVLGLKHGASQDSIKKSYRRLVKQHHPDLGGSADSFRKVNEAYQLLIMN
- soluble fraction (log2): -0.749

Sequence: HMTIKNHIDEILKKEPFILENIKNGLINISALARQIEPQLSRKVGKKLNVNAIIMTIKRMEIDQLNK
- soluble fraction (log2): -2.25

Sequence: HMDDPITVAYRETEDAIAQVQREGFPVEMPPANSYIRRIQHELAGRFNLDSESYGDEPERRVRIRPQQ
- soluble fraction (log2): -0.107

Sequence: HMSIYDAPIEDLKFSTRIFNSLKRADIHTVADLIAHSRDDLMKVRNLGATSLDELIEKLGTHGLQLADP
- soluble fraction (log2): -0.412

Sequence: HMFPELTDDEQLIVSTLAKTNDMQINMLAVRTGIPVQRMSALLFSLEMKGVVKMYAGGTYHLL
- soluble fraction (log2): -2.93

Sequence: HMSLMHEESLKNIRRFINSLPESLRTAFTLREQDGLSYEEIGVITETPIGTVRSRIFRAREAILEHIKKEL
- soluble fraction (log2): -2.39

Sequence: HMLDKIRTYIDNSFTGVNETKKVKELKDELFENLKEKYNDQIQDGKTEQEAYNSVISGIGDLSELIESVK
- soluble fraction (log2): ≥ 1.04

Sequence: HMFSPTKLKEKRESQGLSQSQLASSLGISRASYFNWESGKTKPNQNNLSKLSEILNVDPRYF
- soluble fraction (log2): 0.489

Sequence: HMTFENMFIENSGETLDREFLVENLRGISWQSYDRSVDVLVSRLRGKLGETPNNTRFIKTIHGVGYKFIGE
- soluble fraction (log2): 0.353

Sequence: HMVEDIVLTDAQIEFVKQQAKNGLSAFQISEMIWPEMSVKRFSKQHVAVLDFLREYEPAYVHDSE
- soluble fraction (log2): 0.156

Sequence: HMIENMQEYVRHIRAAVSDRLDLTREVEDDEIREVISQIVAEESRQNYLSLGERQTVIETVFNSMR
- soluble fraction (log2): -0.339

Sequence: HMSFGKKLRSLRQEKKLSQVELSKKLNVTSQALSQYELGKRIPDAEMIIRIADFFDVSVDYLLDRT
- soluble fraction (log2): -1.69

Sequence: HMSVFTPLTRSELETFLAPYELGRLLDFQGIAAGSENTNYFISLEKGEYVLTLVERGPVAEMPFFIELLD
- soluble fraction (log2): -1.33

Sequence: HMEEEVKVPKIKGLTEAEAKAKLKSEGLESGTARSAYSDTVEEGHIISQSIQEGTKVPKGTAVSYEVSKGK
- soluble fraction (log2): 0.149

Sequence: HMQAKDVEIPNFVGKTLAEANADNKDNFNFVVESKYDASKELGVILEQEPAADSKLVKSGSQITLKV
- soluble fraction (log2): ≥ 1.04

Sequence: HMIIYGLNPVKDFINLFPNKISTLFISKNKLSDSEMKSVVNINTVYVSDAELKRITGTTKHQSLAAEID
- soluble fraction (log2): -1.2

Sequence: HMNEMSDTITRLLDAAETGIRLRGYHAVSFRDLAEELGIKSSSVHYYFRQKEDLGLAVVERY
- soluble fraction (log2): 0.000622

Sequence: HMDKEQVTFIFRDIDIALRSLDYPIKDIKNTLNIIKSEFSNSKSTELNEQKINFENILKEAISILENND
- soluble fraction (log2): -0.855

Sequence: HMNLTEIGQRIRDRREELGLSQDRLAKLGGLPRVTINQLETGSIGDLGVSKLLNLLDLLGLTLDA
- soluble fraction (log2): -0.559

Sequence: HMDDISLEEIKYISSKLETKVNEIEELLVRYYDGETNEAEEKELKEFFAQADVPAHLLAEKRLFMQLASQ
- soluble fraction (log2): 0.245

Sequence: HMGFVTVTEVDTTADLKLARVYVSVLGPEEQWAKSFTALESARGFVWNWLRKHLDLRVTPQLAF
- soluble fraction (log2): -1.08

Sequence: HMHQAVTVTKPARLFTGPDGKGVVRSLDVGMMLYPTGEKQGMMWEVEDELGNKGWVSSTLLELS
- soluble fraction (log2): 0.0637

Sequence: HMSVPRPSAVEVTSLVTGVRDLLPHLGEGYVERVLVEFGFKVDETINALLEGNLPKHLQDLDPSLTKEI
- soluble fraction (log2): -1.24

Sequence: HMNIGIVSLAAVPMRKEPSDRAEMVNQILFGETFDVLEEQEKWTLVQLHHDAYQGWIDRKQWDYASGIAD
- soluble fraction (log2): -1.33

Sequence: HMDFVKGDTVVFIDAFMPDHLMTIHKVQGEGILLDGNHKFALAHLIRHASTVELNAKRRLSLTEQS
- soluble fraction (log2): -2.42

Sequence: HMEDINAVLAENLRRLRESRRLSLDAVARLTGVSKSMLGQIERGEVNPTVSTMWKIAGGLKVNFTALFRRE
- soluble fraction (log2): -3.79

Sequence: HMKEVDERPWGKYEVLLDAPDVKVKRITVNPGQRLSYQYHEKRAEVWTVVSGILTIILEDDKLFRG
- soluble fraction (log2): 0.17

Sequence: HMVGIAEAMKHIADEDYGDLSAIFKQIFSDTDGGRNFSDAIRTQMRSTDSSGLRKVLSTLIMSIEE
- soluble fraction (log2): -0.651

Sequence: HMQATDEEIENFTSSAITAYKLTKEEGYIISMRDMKPIMEIVKTEYPMANGKVVSKVMNNYING
- soluble fraction (log2): 0.0264

Sequence: HMGEQYYVLIDNKQNGPHNINAIQKMIDQNIVNRQTLIWKKGMTDWGNIMDDKDLKEMVNKIP
- soluble fraction (log2): 0.111

Sequence: HMTIPSYAEAVRYVRRQPRINTSTLADGLGIRWSLALDYLERMARSGVVGAIEDDGWWPVAR
- soluble fraction (log2): -0.977

Sequence: HMLAVPADFAEKLQSLRSQLASDDLDASDAFGRLQPFIKALYPAQLEALRKAVDDFDFVEATRLIDQLPQ
- soluble fraction (log2): -0.376

Sequence: HMEGGLIMDRIEKGLQSGVMPDLRGLNLKDALYLLESYVQVQVIGSGGVIKQSIKTGDKFIMGSVIKLEL
- soluble fraction (log2): -0.138

Sequence: HMTSNIIIVPNVVGMTKEQATAALAAAGLNIKLSGVETTDTAAVAVKQKPSANTKVEEGSVVTVEFDLK
- soluble fraction (log2): ≥ 1.04

Sequence: HMHHIDYKQLRRINPVAARRAVLDYLESTGGNITKTAQVFSINRSVVYDILKKQASGDLSDRLRIP
- soluble fraction (log2): -2.04

Sequence: HMVKVSVYPNPAVDRITISGEVKAYAVYDATGKVVMKDTDYRGGAIGVSHLPAGIYIVRTDAGAVTVNK
- soluble fraction (log2): -0.595

Sequence: HMRKVTDTHELSSVVKSVIDQWEEKAAEYRAGKSGLLGFFVGEVMKKTGGAADPEAAKSLLQDRLD
- soluble fraction (log2): 0.0219

Sequence: HMNNTIKFSVDENNSGKRLDVYLTENINHLTRSFLKKLIEKEQVKLNKKVLTSPATKVKTKDQITINIIE
- soluble fraction (log2): 0.0625

Sequence: HMTATDRQLQLIAYTAARLMAEQGIADFNAAKRKAIQTLGLPNNAKLPGNADVEAQLRAYQRIF
- soluble fraction (log2): -0.605

Sequence: HMNREMLVHAIGQLKEKYASALELKYWHGFTEREIAAFLNISEKAANSRLVRGRVMLRKLLE
- soluble fraction (log2): 0.0264

Sequence: HMKVEFDAMDKRILELMAKEYDTVLMARHLPLTPIVIDVRKKRIREVLNLPDATDAEIVIEAKEKDII
- soluble fraction (log2): -1.08

Sequence: HMQKITPDNWTYIRSLIRQKWSPDQIDQWLKKHPDVGFTVSRETIYQYVKEDRQKDGDLYLSLRRAGKSY
- soluble fraction (log2): -2.18

Sequence: HMLGDAVLRQVLETIPEDPAVDYLELRRNTGMTEADLDRVLADLENLGVINKKRTVEQVLYWRT
- soluble fraction (log2): -0.651

Sequence: HMKTMSLSSIEKAIYKTKYENEPTSQRLSRIESSVFGTNFSQDSESERIARISSAINAQKSAK
- soluble fraction (log2): 0.0313

Sequence: HMNVSDIENKLNEMLSPLEKKVMVLYLEGKSYVEIGELLGRHTKSVDNALQRVKRKLEIYLKNRK
- soluble fraction (log2): -2.62

Sequence: HMLLTHEEQIVKRGWQAPVGPFAILDSRAEAMHGDLEMLRGDREAAEQHFRRAWQIIGPIVEQ
- soluble fraction (log2): -0.0144

Sequence: HMHIDQVIRERRLALGLTQEELANKIGVSAPAVSKWEKRVSYPDITLLPALARILGTDVNTLLTFS
- soluble fraction (log2): -1.08

Sequence: HMQENFYMILESEERRVLDVLVADQPESVATFLKLVSPFPNYKIILEHINEKALDFYEETVI
- soluble fraction (log2): -0.35

Sequence: HMATPRLAIVPQSAAGRRLDAVLAELFPEYSRSRLSAWIKTGDVMVDGAAPRGRDPVRGGEEITLTAVQ
- soluble fraction (log2): -0.183

Sequence: HMRGSRIFSGDVSPLTLPANSPFFSGYTEFKPGDVYVERSATNIAMWEWKSQPGGYTWVKTADIA
- soluble fraction (log2): -1.27

Sequence: HMPTTRPEAEAHYETHQRYHDLQIDVEGREAFKVATGSLTLVQEFDEKDDYDLSIPTPRSPAILLTT
- soluble fraction (log2): -0.0329

Sequence: HMDTIVVAARSIQARQTLTESDLRVEEQEIGAASDKYYTDIAEAVGLVSSRRLSPGQPILRTM
- soluble fraction (log2): -0.352

Sequence: HMNFAERIKELRKEKGITQIDLAEAVGLSKGTVAMWEVDKREANFDTLNKLSDYFQVSIDYLLGRSNDRS
- soluble fraction (log2): -0.0785

Sequence: HMTDFSDLSFKYNSEEKDVLNSINLKINGGEMTSLVGHSGAGKTTILNLIPRFYEKSKGDISIDGQSIY
- soluble fraction (log2): 0.0241

Sequence: HMHPQISVEGVLPLKEAVEFVEREIISHAYSRYRATREVARHLGIDPSTVLRKAAKYGITVEPGKN
- soluble fraction (log2): -1.07

Sequence: HMEETLLLRESVRSALAMLAPTLRITLEMYVYRQLSPTEIALRSGVSISMVRRRLGYGLYKLRTQLIDA
- soluble fraction (log2): -0.121

Sequence: HMSNRDNPVVLDFKKVKSTEQLDNILEEYIRENFEGYTVKGRMFSSDEGKFIIALALKDDDGKRALVYFDV
- soluble fraction (log2): -1.04

Sequence: HMPGLITLEAAKTTALNHAKLTADQVTFVKQKLDRDDGRQVYEIEFYTSDYKEYDYEIDAVSGLILEVDYD
- soluble fraction (log2): -0.866

Sequence: HMVVRRLPFGFSKRFGVLVVPGTSNPVELLYREDASMQSLLEARRVVAQPVAFKKTDVESFNAQLARAHEN
- soluble fraction (log2): -1.66

Sequence: HMKTEIKSPLPGIVLKIFVRTGEYVDKNQRLFSLEAMKMENEIKAERAGVIAGIRISEGQSVLQDEVIMEM
- soluble fraction (log2): -3.7

Sequence: HMDRKFFYEDQYQDYLGEELKVSFFDTDNKKTVRGTLSEVTPHGIKINLEQETQEIPFSSIIQANLI
- soluble fraction (log2): 0.224

Sequence: HMDYQYILVDVKDRIATVTINRPEYSNAFARESYYEIADAMNTLGARDDVGVIVITGAGKHFSAGGDIKRF
- soluble fraction (log2): -0.777

Sequence: HMIDELNVGDIRFYLNRYGKEIQIEIIRIGDDGSVYARTMADNALFRVPEARLKNIGEKVPAEEVQRG
- soluble fraction (log2): -1.42

Sequence: HMKFKDYYAALGIDRNADLEQIKKAYRKLARQYHPDVSKAPDAEARFKDAAEAYATLKNPEKRAAYDELGS
- soluble fraction (log2): 0.0895

Sequence: HMQTKSDMVYHRVREDIVNGVFAPGERLLISAVAKQYGVSEIPVREAFRVLSQEGFLKTRPNSGFVVS
- soluble fraction (log2): -0.44

Sequence: HMPRTEILMVDEEMEGERLDAFVAEQLDELSRSLVKTLIENGEIRVDGKQQKPSYRLKAGEEIIVEIPA
- soluble fraction (log2): 0.439

Sequence: HMKNDNIHMMASKINGIALEVGVLTPGMHPKNDLSEGEVGYIVTNLKTTREAKVGDTVTLAKKPAATPLPG
- soluble fraction (log2): 0.322

Sequence: HMTRTISKVAKELAINIETVRFYERRGLIEQPPKPELGYRHYPDETVNRIRFIKRAQELGFTLEEIANLLS
- soluble fraction (log2): -1.66

Sequence: HMPSGRIRWFDAKKGYGFIAGDDGKDVFLPQTALPQGVRNPRKGAKVEYSVIEGNRGQVAMGVTMV
- soluble fraction (log2): -0.331

Sequence: HMRQDEKTLLYWIGAQVKREGKLIKTSTAQYLVEKTGTDMENLEKELEKLFAYTLDEKEITPAAIDEI
- soluble fraction (log2): -1.77

Sequence: HMDIMLLLYKNIKKRRLEIGMSQEELAQKTGYTSRSSIAKIEKGEVDLQLSKIKLFANALRVSQSELMG
- soluble fraction (log2): -3.49

Sequence: HMVWINIRDLSDLFSKSGKSENSKNILDLQTLKIEKLLGGGQINTPYTIKVKQATPSAIEKVKQAGGEVIL
- soluble fraction (log2): -0.104

Sequence: HMAVPTHVEFPVVGLQRSGITSLEQAIATVPGVSKAVVNVSDNRIFVDYDPTRSKVSDLLEVVRGAGFTP
- soluble fraction (log2): -0.043

Sequence: HMISKTFEINEDNINNRLDIFLANQFDNLSRGIVQKLIESHSVSVSGNFVEKDYKLKLGDIIDVEINLS
- soluble fraction (log2): -1.64
